Assay results as given in patent US20230356187A1.

Key:
[1] = target: purified antibody (KBIO, Korea); assay: 1 ml resin column; purified antibody bound, eluted and measured after 15 cycles of 0.3 M NaOH; reference Capto L
[2] = target: purified antibody (KBIO, Korea); assay: 1 ml resin column; purified antibody bound, eluted and measured after 15 cycles of 0.3 M NaOH (15 min each)

residual activity relative to Cytiva's product (Capto L) [1]: 1.4 times
residual activity (antibody recovered after 15 alkali treatments, relative to the initial binding) [2]: 43.5%
B1: variant protein 4mBF (mBF tetramer) (designed binder)
chain: MPKEEVTIKANLIFADGKTQTAEFKGTFGEATAEAYRYADLLAPENGKYTVDVADKGYTLNIKFAGKEKTPEEMPKEEVTIKANLIFADGKTQTAEFKGTFGEATAEAYRYADLLAPENGKYTVDVADKGYTLNIKFAGKEKTPEEMPKEEVTIKANLIFADGKTQTAEFKGTFGEATAEAYRYADLLAPENGKYTVDVADKGYTLNIKFAGKEKTPEEMPKEEVTIKANLIFADGKTQTAEFKGTFGEATAEAYRYADLLAPENGKYTVDVADKGYTLNIKFAGKEKTPEE
